Where two headings read alike, the source gives them in different places. Values belong to the binder of their own block, whether it stands above or below them.
Legend:
[1] = target: T1, recombinant human TL1A (human, UniProt O95150 71-251); assay: competition ELISA, coated TL1A, competitor bio-TL1A-0002
T1 construct: Homotrimeric cytokine; biotinylated with Sulfo-NHS-biotin where captured for SPR, coated unlabelled in ELISA, soluble in bioassays; also called TNFSF15
T1 chain: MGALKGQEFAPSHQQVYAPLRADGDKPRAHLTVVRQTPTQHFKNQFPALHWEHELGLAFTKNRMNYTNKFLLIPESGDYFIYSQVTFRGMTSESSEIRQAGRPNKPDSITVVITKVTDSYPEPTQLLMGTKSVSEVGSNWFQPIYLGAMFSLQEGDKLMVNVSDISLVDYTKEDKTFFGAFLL
Method: (§1) For this competition ELISA assay procedure, 96-well high binding plates (Corning, product number 3590) were coated with 1 μg/mL recombinant TL1A in 100 μL/well in Phospate Buffered Saline (PBS) overnight at 4° C. Plates were then blocked in PBS+0.02% casein solution and washed with PBS+0.05% Tween-20 following standard ELISA protocol. […] Plates were washed with PBS+0.05% Tween-20 following standard ELISA protocol, and Streptavidin-HRP (Southern Biotech, product number 7100-05) diluted to 1:10,000 in assay buffer was added to plates and incubated for 25-30 minutes at room temperature. Next, the plates were washed with PBS+0.05% Tween-20 following standard ELISA protocol, and then TMB substrate (BioFX Laboratories, catalog number TMBW-0100-01) was added to plates. Reactions were stopped after approximately 5 minutes by adding 0.18 M ortho-phosphoric acid to each well and absorbance was read at 450 nm.

[2] = target: T1, recombinant human TL1A; assay: cell-based or functional assay
[3] = target: T2, full-length human TL1A on CHO-K1 cells (human, UniProt O95150 1-251); assay: flow cytometry, CHO-K1 cells expressing human TL1A, 133 nM; cells, antibody at 133 nM
T2 construct: whole, on cells; also called cells over-expressing human TL1A
T2 sequence (looked up): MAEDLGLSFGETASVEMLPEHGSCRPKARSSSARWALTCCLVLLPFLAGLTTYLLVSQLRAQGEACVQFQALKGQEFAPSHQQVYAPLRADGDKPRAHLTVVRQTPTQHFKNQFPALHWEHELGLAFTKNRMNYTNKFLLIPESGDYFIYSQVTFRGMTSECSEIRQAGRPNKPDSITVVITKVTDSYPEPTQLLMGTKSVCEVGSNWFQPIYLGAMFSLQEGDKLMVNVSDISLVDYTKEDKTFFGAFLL

[4] = target: T3, recombinant human TL1A (human, UniProt O95150 71-251); assay: ELISA, biotinylated antibody on coated recombinant TL1A
T3 construct: homotrimer; biotinylated for SPR capture; the ELISA paragraphs say only 'recombinant TL1A'; also called TNFSF15
T3 chain: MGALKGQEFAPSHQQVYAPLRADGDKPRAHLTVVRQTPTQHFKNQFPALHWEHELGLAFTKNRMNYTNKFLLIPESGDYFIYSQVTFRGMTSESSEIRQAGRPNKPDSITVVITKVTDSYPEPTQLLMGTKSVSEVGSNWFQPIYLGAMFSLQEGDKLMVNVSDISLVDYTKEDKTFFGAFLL

[5] = target: T3, recombinant human TL1A; assay: competition ELISA vs bio-TL1A-0002
Method: as §1

[6] = target: T3, recombinant human TL1A; assay: competition ELISA vs bio-TL1A-0002
[7] = target: T1, recombinant human TL1A; assay: competition ELISA on plate-coated recombinant human TL1A, competitor biotinylated TL1A-0260 (bio-TL1A-0260), streptavidin-HRP, OD450
Method: as §1, with “Laboratories Catalog” for “Laboratories, catalog”

[8] = target: T2, full-length human TL1A on CHO-K1 cells; assay: flow cytometry on CHO-K1 cells stably expressing full-length human TL1A, PE anti-human IgG, median fluorescent intensity
In short: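 CHO-K1 cells expressing human TL1A were incubated on ice 30-60 minutes with bivalent antibody variants at 1 μg/mL or 20 μg/mL. Binding was detected with PE-anti-human IgG (1:500, 15 minutes on ice) and read by flow cytometry as median fluorescence intensity.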

[9] = target: T1, recombinant human TL1A; assay: competition ELISA on plate-coated recombinant human TL1A, competitor biotinylated TL1A-0260 (bio-TL1A-0260), streptavidin-HRP, OD450
Method: as §1, with “Laboratories Catalog” for “Laboratories, catalog”

[10] = target: T1, recombinant human TL1A; assay: as above
Method: as §1, with “Laboratories Catalog” for “Laboratories, catalog”

[11] = target: T1, recombinant human TL1A; assay: as above
Method: as §1, with “Laboratories Catalog” for “Laboratories, catalog”

[12] = target: T4, human serum albumin (human, UniProt P02768 25-609); assay: direct binding ELISA on coated HSA
T4 construct: also called HSA
Method: (§2) For the direct binding ELISA method to HSA or BSA, 96-well high binding plates (Corning, product number 3590) were coated with 1 μg/mL recombinant HSA or BSA in 100 μL/well in PBS overnight at 4° C. Plates were then blocked in PBS+0.02% casein solution and washed with PBS+0.05% Tween-20 following standard ELISA protocol. […] Plates were washed with PBS+0.05% Tween-20 following standard ELISA protocol, and goat anti-human IgG-Fc HRP conjugated secondary antibody (Pierce, #31413) diluted to 1:10,000 in assay buffer was added to plates and incubated for 1 hour at room temperature. Next, the plates were washed with PBS+0.05% Tween-20 following standard ELISA protocol, and then TMB substrate (BioFX Laboratories, catalog number TMBW-0100-01) was added to plates.
(§3) Reactions were stopped after approximately 5 minutes by adding 0.18 M ortho-phosphoric acid to each well and absorbance was read at 450 nm. […] For this method, samples diluted to 0.3 mg/mL were dispensed into the sample tray of a MicroCal VP-Capillary DSC with Autosampler (Malvern Instruments, Inc.), equilibrated for 5 minutes at 10° C. and then scanned up to 110° C. at a rate of 100° C. per/hour. A filtering period of 16 seconds was selected. Raw data was baseline corrected and the protein concentration was normalized. Origin Software 7.0 (Origin Lab Corporation, Northampton, MA) was used to fit the data to an MN2-State Model with an appropriate number of transitions.

[13] = target: T5, bovine serum albumin (bovine, UniProt P02769 25-607); assay: direct binding ELISA on coated BSA
T5 construct: also called BSA
T5 sequence (P02769 25-607 limits assumed): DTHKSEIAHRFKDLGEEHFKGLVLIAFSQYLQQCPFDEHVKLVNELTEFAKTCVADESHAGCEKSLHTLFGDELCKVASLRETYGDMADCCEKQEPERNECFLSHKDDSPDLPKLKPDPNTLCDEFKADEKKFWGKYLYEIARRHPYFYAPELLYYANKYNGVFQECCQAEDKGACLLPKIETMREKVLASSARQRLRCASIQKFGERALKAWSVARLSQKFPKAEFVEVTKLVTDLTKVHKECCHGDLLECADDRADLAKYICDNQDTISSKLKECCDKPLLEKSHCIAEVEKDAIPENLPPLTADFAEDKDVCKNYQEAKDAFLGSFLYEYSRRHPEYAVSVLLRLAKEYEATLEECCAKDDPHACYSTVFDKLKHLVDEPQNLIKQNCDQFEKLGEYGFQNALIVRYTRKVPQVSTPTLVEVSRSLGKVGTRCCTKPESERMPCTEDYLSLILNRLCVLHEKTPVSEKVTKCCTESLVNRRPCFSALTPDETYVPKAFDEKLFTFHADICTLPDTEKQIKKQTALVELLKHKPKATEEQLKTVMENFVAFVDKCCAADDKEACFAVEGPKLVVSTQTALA
Method: as §2, §3

[14] = target: T3, recombinant human TL1A; assay: cell-based or functional assay
[15] = target: T6, recombinant cynomolgus monkey TL1A (cynomolgus monkey, UniProt O95150 72-251 (human entry)); assay: SPR, antibody injected over captured biotinylated TL1A, 37° C.
T6 construct: biotinylated for SPR capture; also called cyno TL1A
T6 chain: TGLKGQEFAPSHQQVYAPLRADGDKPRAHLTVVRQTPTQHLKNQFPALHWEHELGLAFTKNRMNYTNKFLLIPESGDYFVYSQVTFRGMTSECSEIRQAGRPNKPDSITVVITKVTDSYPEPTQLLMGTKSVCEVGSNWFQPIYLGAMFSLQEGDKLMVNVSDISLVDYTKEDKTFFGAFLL
Method: (§4) For these analyses, kinetic assays were conducted at 37° C. using a collection rate of 10 Hz on a Biacore™ T200 instrument (GE Healthcare). […] The association phase was 90 seconds, and the dissociation phases were 1600 seconds over human, cynomolgus monkey and rabbit TL1A and 180 seconds for mouse and rat TL1A.
(§5) In order to determine binding to TL1A, kinetic assays were conducted at 37° C. using a collection rate of 10 Hz on a Biacore™ T200 instrument (GE Healthcare).

[16] = target: T7, recombinant mouse TL1A (mouse, UniProt Q5UBV8 75-252); assay: as above
T7 construct: biotinylated for SPR capture
T7 chain: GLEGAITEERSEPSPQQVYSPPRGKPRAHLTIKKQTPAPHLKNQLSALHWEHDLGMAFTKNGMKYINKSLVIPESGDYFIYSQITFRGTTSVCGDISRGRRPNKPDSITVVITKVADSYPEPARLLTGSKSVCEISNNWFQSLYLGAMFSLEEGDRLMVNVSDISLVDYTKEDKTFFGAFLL
Method: as §4, §5

B1: TL1A-0002 (antibody, human IgG1, kappa, V domains shown)
VH: QVQLVQSGAEVKKPGASVKVSCKASGYDFTYYGISWVRQAPGQGLEWMGWISTYNGNTHYARMLQGRVTMTTDTSTRTAYMELRSLRSDDTAVYYCARENYYGSGAYRGGMDVWGQGTTVTVSS
VL: EIVLTQSPATLSLSPGERATLSCRASQSVSSYLAWYQQKPGQAPRLLIYDASNRATGIPARFSGSGSGTDFTLTISSLEPEDFAVYYCQQRSNWPWTFGQGTKVEIKR
notes: human IgG1 effector-function-minimized/kappa; also called parental TL1A-0002
- Bioactivity relative to TL1A-0002 [1]: 1 fold
- IC50 [1]: 5 nM
- TF-1 NF-κB reporter cell bioassay IC50 [2]: 34.7 nM
- TF-1 NF-κB reporter cell bioassay, Bioactivity relative to TL1A-0002 [2]: 1 fold
- Whole blood IFNγ assay IC50 [2]: 0.83 nM
- Whole blood IFNγ assay, Bioactivity relative to TL1A-0002 [2]: 1 fold
- binding result [3]: binds

B2: TL1A-0002 (antibody, human IgG1, kappa, V domains shown)
VH: QVQLVQSGAEVKKPGASVKVSCKASGYDFTYYGISWVRQAPGQGLEWMGWISTYNGNTHYARMLQGRVTMTTDTSTRTAYMELRSLRSDDTAVYYCARENYYGSGAYRGGMDVWGQGTTVTVSS
VL: EIVLTQSPATLSLSPGERATLSCRASQSVSSYLAWYQQKPGQAPRLLIYDASNRATGIPARFSGSGSGTDFTLTISSLEPEDFAVYYCQQRSNWPWTFGQGTKVEIKR
notes: human IgG1/kappa, effector function minimized; also called bioTL1A-0002 (biotinylated)
- EC50 [4]: 5 ng/mL
- Bioactivity relative to TL1A-0002 [5]: 1 fold
- IC50 [5]: 4.5 nM
- Bioactivity relative to TL1A-0002 [6]: 1 fold
- IC50 [6]: 4.5 nM

Other lines, results leading:

- IC50 (read off the curve) [7]: ~4 nM
- Bioactivity relative to TL1A-0002 [1]: 1.3 fold
- IC50 [1]: 6.8 nM
- binding result [8]: binds
- IC50 (read off the curve) [9]: ~4 nM
- TF-1 NF-κB reporter cell bioassay IC50 [2]: 29.2 nM
- TF-1 NF-κB reporter cell bioassay, Bioactivity relative to TL1A-0002 [2]: 0.8 fold
- Whole blood IFNγ assay IC50 [2]: 0.755 nM
- Whole blood IFNγ assay, Bioactivity relative to TL1A-0002 [2]: 0.9 fold
- IC50 (read off the curve) [10]: ~4 nM
- IC50 (read off the curve) [11]: ~7 nM
B3: TL1A-0260 (antibody, human IgG1, kappa, V domains shown)
VH: QVQLVQSGAEVKKPGASVKVSCKASGYDYTYYGISWVRQAPGQGLEWMGWISTYNTGTHYAPSLQGRVTMTTDTSTSTAYMELRSLRSDDTAVYYCARESYYGSGAFRGGMDVWGQGTTVTVSS
VL: DIQMTQSPSSLSASVGDRVTITCRASQSVSSYLAWYQQKPGKAPKLLIYDASNRATGVPSRFSGSGSGTDFTLTISSLQPEDFATYYCQQRSNWPWTFGQGTKVEIKR
notes: human IgG1 effector-function-minimized/kappa; also called bio-TL1A-0260 (biotinylated reporter)

- binding result [12]: no binding (tested: 0.5-1000 nM)
- binding result [13]: no binding (tested: 0.5-1000 nM)
- NF-κB assay in TF-1 reporter cells, neutralization relative to TL1A-0002 [14]: ≤ 2 fold
- fold higher affinity to human TL1A than to this TL1A [15]: ~2 fold
- fold higher affinity to human TL1A than to this TL1A [16]: ~546 fold
B4: TL1A-0372 monovalent bispecific antibody (bispecific antibody, human IgG1, kappa)
heavy 1: QVQLVQSGAEVKKPGASVKVSCKASGYDYTYYGISWVRQAPGQGLEWMGWISTYNTGTHYAPSLQGRVTMTTDTSTSTAYMELRSLRSDDTAVYYCARESYYGSGAFRGGMDVWGQGTTVTVSSASTKGPSVFPLAPSSKSTSGGTAALGCLVKDYFPEPVTVSWNSGALTSGVHTFPAVLQSSGLYSLSSVVTVPSSSLGTQTYICNVNHKPSNTKVDKKVEPKSCDKTHTCPPCPAPEAAGAPSVFLFPPKPKDTLMISRTPEVTCVVVDVSHEDPEVKFNWYVDGVEVHNAKTKPREEQYNSTYRVVSVLTVLHQDWLNGKEYKCKVSNKALPAPIEKTISKAKGQPREPQVCTLPPSREEMTKNQVSLWCLVKGFYPSDIAVEWESNGQPENNYKTTPPVLDSDGSFFLYSKLTVDKSRWQQGNVFSCSVLHEALHSHYTQKSLSLSPGK
heavy 2: not shown
light: not shown
notes: KiH, LS

From patent US20240059799A1 (Pfizer, published 2024)
